Measurements: publication PMC8835667

Target: tripartite motif containing 28 (TRIM28) (human (endogenous in HeLa)) (UniProt Q13263)
Sequence (Q13263 whole entry): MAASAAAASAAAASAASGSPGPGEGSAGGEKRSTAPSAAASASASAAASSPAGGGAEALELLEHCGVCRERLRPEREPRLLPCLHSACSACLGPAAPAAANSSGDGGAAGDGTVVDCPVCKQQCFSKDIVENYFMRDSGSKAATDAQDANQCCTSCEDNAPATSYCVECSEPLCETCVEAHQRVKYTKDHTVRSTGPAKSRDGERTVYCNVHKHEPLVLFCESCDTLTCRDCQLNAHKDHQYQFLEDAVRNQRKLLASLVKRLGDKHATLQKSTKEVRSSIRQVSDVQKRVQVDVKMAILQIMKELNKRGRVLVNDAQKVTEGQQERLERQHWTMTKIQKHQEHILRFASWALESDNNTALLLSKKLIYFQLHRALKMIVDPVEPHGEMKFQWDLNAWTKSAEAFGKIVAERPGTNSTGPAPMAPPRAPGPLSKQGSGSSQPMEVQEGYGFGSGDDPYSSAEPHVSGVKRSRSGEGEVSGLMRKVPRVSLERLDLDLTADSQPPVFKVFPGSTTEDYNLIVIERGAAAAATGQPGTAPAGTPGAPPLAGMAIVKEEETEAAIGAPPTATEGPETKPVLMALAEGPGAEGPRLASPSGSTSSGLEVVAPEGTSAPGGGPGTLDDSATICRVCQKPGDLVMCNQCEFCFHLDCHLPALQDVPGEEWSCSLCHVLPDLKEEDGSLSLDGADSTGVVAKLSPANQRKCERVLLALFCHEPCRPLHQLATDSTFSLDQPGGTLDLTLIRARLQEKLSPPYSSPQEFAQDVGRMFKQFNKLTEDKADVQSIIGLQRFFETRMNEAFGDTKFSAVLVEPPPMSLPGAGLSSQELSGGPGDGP

## GST fusion of wild-type PRDM9 aKRAB-A with ZNF10-B (domain or fragment)
  transcriptional repression factor over Gal4-DBD alone, dual luciferase reporter assay in HeLa cells (KRAB domain as Gal4-DBD fusion): 0.9 fold
